# Test results taken from publication PMC9715571 (Cell Research, 2022).
# T1: VIRMA^381–1486 (human, UniProt Q69YN4 381-1486)
# T1 construct: probably the baculovirus-insect cell system used for the other complexes
# T1 sequence (looked up): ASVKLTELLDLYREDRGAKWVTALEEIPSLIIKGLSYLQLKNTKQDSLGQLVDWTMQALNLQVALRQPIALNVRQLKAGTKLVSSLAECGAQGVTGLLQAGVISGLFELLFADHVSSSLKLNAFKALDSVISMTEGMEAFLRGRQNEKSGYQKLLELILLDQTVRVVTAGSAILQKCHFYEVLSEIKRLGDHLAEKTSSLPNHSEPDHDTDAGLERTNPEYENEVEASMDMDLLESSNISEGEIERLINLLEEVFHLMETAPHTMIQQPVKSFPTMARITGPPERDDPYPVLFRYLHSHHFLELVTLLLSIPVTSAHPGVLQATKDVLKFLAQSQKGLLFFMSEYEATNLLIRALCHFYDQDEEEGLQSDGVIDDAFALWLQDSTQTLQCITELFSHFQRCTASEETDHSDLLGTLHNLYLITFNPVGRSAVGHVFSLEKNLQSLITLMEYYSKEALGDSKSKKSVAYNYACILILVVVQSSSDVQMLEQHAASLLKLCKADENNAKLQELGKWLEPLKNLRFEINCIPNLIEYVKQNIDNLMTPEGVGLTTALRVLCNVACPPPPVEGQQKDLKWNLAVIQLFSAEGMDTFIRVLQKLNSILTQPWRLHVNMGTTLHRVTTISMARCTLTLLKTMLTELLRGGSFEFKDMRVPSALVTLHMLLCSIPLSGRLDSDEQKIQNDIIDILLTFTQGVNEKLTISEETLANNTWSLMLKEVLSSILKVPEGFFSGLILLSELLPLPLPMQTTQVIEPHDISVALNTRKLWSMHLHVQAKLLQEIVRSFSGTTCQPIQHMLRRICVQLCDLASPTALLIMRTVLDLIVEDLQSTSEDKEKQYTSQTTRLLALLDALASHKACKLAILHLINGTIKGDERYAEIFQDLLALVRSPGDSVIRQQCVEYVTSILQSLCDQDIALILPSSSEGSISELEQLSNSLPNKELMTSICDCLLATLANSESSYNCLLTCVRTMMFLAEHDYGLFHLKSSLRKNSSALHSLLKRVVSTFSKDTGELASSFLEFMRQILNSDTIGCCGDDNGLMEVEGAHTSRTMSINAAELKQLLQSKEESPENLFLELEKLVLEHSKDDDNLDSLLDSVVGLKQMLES
# T2: METTL14 (human, UniProt Q9HCE5 1-456)
# T2 construct: METTL14, human; also called MTC core subunit; source: baculovirus-insect cell expression system, co-expressed, purified
# T2 sequence (looked up): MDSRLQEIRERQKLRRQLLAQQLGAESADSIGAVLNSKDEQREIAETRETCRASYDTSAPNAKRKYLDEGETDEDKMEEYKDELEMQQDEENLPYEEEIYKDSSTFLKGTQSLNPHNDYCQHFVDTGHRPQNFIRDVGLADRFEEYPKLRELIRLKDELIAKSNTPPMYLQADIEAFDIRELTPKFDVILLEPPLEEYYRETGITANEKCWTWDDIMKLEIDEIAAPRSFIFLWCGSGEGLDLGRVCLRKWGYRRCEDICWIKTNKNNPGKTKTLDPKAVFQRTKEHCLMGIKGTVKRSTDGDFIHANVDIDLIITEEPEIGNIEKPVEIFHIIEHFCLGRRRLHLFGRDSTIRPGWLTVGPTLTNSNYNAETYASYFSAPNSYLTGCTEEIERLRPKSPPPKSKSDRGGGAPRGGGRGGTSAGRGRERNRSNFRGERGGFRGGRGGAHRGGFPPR
# Tests used:
# [1] = biological target: the molecule itself; assay: crystal structure; WTAP 130-241 alone, 2.40 Å
# VIRMA^381–1486 = biological target: T1, VIRMA^381–1486; assay: cryo-EM structure; METTL3–METTL14–WTAP 1-273–VIRMA 381-1486 complex, gradient fixation, 3.1 Å; only WTAP 171-237 and VIRMA 381-1292 seen; conditions: both partners purified
# [2] = biological target: the molecule itself; assay: as above
# METTL14 = biological target: T2, METTL14; assay: SEC; gel filtration analysis of the purified, co-expressed METTL3–METTL14–WTAP 1-273–VIRMA 381-1486 complex; conditions: both partners purified
# METTL3 = biological target: T3, METTL3 (human, UniProt Q86U44 1-580); assay: cross-linking; in vitro CXMS of the quaternary M–M–W–V complex with BS3, FDR < 5%; conditions: both partners purified
# T3 construct: METTL3, human; The same molecule is used for the co-purifications, the gel filtration and the cross-linking; also called MTC core subunit; source: baculovirus-insect cell expression system, co-expressed, purified
# T3 sequence (Q86U44 whole entry): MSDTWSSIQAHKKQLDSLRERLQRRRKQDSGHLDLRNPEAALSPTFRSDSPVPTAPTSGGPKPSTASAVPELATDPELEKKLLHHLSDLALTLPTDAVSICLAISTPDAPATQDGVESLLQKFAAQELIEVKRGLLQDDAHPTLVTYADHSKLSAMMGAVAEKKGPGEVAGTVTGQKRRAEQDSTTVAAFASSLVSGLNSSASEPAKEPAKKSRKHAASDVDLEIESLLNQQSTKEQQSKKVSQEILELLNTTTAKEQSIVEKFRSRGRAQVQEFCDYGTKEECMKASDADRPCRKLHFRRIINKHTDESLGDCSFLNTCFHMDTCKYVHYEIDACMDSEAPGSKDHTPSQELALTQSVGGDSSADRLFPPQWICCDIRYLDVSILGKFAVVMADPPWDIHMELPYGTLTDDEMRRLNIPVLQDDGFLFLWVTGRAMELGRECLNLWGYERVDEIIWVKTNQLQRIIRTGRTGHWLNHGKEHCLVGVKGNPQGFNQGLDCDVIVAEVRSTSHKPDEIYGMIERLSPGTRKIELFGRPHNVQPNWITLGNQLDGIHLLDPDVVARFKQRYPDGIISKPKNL
Binder,stoichiometry N [1],stoichiometry N (VIRMA^381–1486),stoichiometry N [2],binding result (METTL14),binding result (METTL3)
"WTAP^130–241 (domain or fragment, human, UniProt Q15007 130-241, looked up, WTAP, human, residues 130-241; density assigned for residues 150-241; also called WTAP alone; WTAP^150–241 (assigned density); source: Escherichia coli expression system) QTKDKLEQAQNELSAWKFTPDSQTGKKLMAKCRMLIQENQELGRQLSQGRIAQLEAELALQKKYSEELKSSQDELNDFIIQLDEEVEGMQSTILVLQQQLKETRQQLAQYQQ",2,,,,
"WTAP^1–273 (domain or fragment, human, UniProt Q15007 1-273, looked up, probably the baculovirus-insect cell system used for the other complexes; also called WTAPA; WTAPB) MTNEEPLPKKVRLSETDFKVMARDELILRWKQYEAYVQALEGKYTDLNSNDVTGLRESEEKLKQQQQESARRENILVMRLATKEQEMQECTTQIQYLKQVQQPSVAQLRSTMVDPAINLFFLKMKGELEQTKDKLEQAQNELSAWKFTPDSQTGKKLMAKCRMLIQENQELGRQLSQGRIAQLEAELALQKKYSEELKSSQDELNDFIIQLDEEVEGMQSTILVLQQQLKETRQQLAQYQQQQSQASAPSTSRTTASEPVEQSEATSKDCSRL",,2 WTAP:VIRMA,2,binds,binds
